Measured values: the supplement of paper PMC9112550, “Optimization of the antimicrobial peptide Bac7 by deep mutational scanning” (BMC Biology, 2022)

Test system: Escherichia coli TOP10
Assay: shrunken log2 fold change of peptide-encoding DNA abundance (4.5 h post-induction vs induction); higher = less antimicrobial activity (less host growth inhibition)
Settings: time post-induction: 4.5 h; library: site-saturation at positions 5, 18, 19, 20
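Also: peptides expressed intracellularly from a pBAD plasmid library in pooled LB shake-flask culture, induced with 0.3% L-arabinose, DNA abundance read by NGS, three biological replicates, DESeq2 with apeglm shrinkage.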

Sequence	shrunken log2 fold change
RRIRGRPPRLPRPRPRPLMEPRP	0.6
RRIRGRPPRLPRPRPRPLNFPRP	-0.0482
RRIRGRPPRLPRPRPRPLNIPRP	-0.148
RRIRGRPPRLPRPRPRPLNKPRP	0.11
RRIRGRPPRLPRPRPRPLNMPRP	-0.114
RRIRGRPPRLPRPRPRPLNSPRP	0.181
RRIRGRPPRLPRPRPRPLSGPRP	0.675
RRIRGRPPRLPRPRPRPLTYPRP	0.279
RRIRGRPPRLPRPRPRPLYCPRP	-0.0212
RRIRGRPPRLPRPRPRPLYNPRP	-0.247
RRIRGRPPRLPRPRPRPLYTPRP	0.145
RRIRGRPPRLPRPRPRPMAVPRP	0.773
RRIRGRPPRLPRPRPRPMCCPRP	0.164
RRIRGRPPRLPRPRPRPMCKPRP	0.886
RRIRGRPPRLPRPRPRPMCMPRP	0.509
RRIRGRPPRLPRPRPRPMCNPRP	0.31
RRIRGRPPRLPRPRPRPMEHPRP	0.171
RRIRGRPPRLPRPRPRPMFQPRP	0.357
RRIRGRPPRLPRPRPRPMGPPRP	0.846
RRIRGRPPRLPRPRPRPMHNPRP	0.383
RRIRGRPPRLPRPRPRPMIGPRP	0.263
RRIRGRPPRLPRPRPRPMIIPRP	0.0975
RRIRGRPPRLPRPRPRPMKLPRP	0.265
RRIRGRPPRLPRPRPRPMKSPRP	0.206
RRIRGRPPRLPRPRPRPMMHPRP	0.456

Sequence	shrunken log2 fold change
RRIRGRPPRLPRPRPRPMNPPRP	0.217
RRIRGRPPRLPRPRPRPMPDPRP	0.13
RRIRGRPPRLPRPRPRPMPPPRP	1.23
RRIRGRPPRLPRPRPRPMPQPRP	0.255
RRIRGRPPRLPRPRPRPMSCPRP	0.364
RRIRGRPPRLPRPRPRPMSHPRP	0.225
RRIRGRPPRLPRPRPRPMTHPRP	0.708
RRIRGRPPRLPRPRPRPMTLPRP	0.509
RRIRGRPPRLPRPRPRPMTQPRP	0.28
RRIRGRPPRLPRPRPRPMVEPRP	0.446
RRIRGRPPRLPRPRPRPMVHPRP	-0.0529
RRIRGRPPRLPRPRPRPMVLPRP	-0.0349
RRIRGRPPRLPRPRPRPMVNPRP	0.744
RRIRGRPPRLPRPRPRPNAHPRP	0.754
RRIRGRPPRLPRPRPRPNCYPRP	0.183
RRIRGRPPRLPRPRPRPNDTPRP	0.188
RRIRGRPPRLPRPRPRPNDVPRP	-0.208
RRIRGRPPRLPRPRPRPNEGPRP	0.0414
RRIRGRPPRLPRPRPRPNEKPRP	0.0813
RRIRGRPPRLPRPRPRPNFMPRP	0.0686
RRIRGRPPRLPRPRPRPNGMPRP	0.106
RRIRGRPPRLPRPRPRPNGRPRP	0.419
RRIRGRPPRLPRPRPRPNHGPRP	-0.178
RRIRGRPPRLPRPRPRPNHLPRP	-0.226
RRIRGRPPRLPRPRPRPNIIPRP	0.0628

Sequence	shrunken log2 fold change
RRIRGRPPRLPRPRPRPNLWPRP	0.671
RRIRGRPPRLPRPRPRPNLYPRP	0.0462
RRIRGRPPRLPRPRPRPNMAPRP	0.875
RRIRGRPPRLPRPRPRPNMLPRP	0.374
RRIRGRPPRLPRPRPRPNNNPRP	-0.0957
RRIRGRPPRLPRPRPRPNPYPRP	-0.0945
RRIRGRPPRLPRPRPRPNQDPRP	0.0491
RRIRGRPPRLPRPRPRPNQIPRP	0.109
RRIRGRPPRLPRPRPRPNQLPRP	0.0782
RRIRGRPPRLPRPRPRPNRHPRP	0.231
RRIRGRPPRLPRPRPRPNTTPRP	0.325
RRIRGRPPRLPRPRPRPNTYPRP	0.106
RRIRGRPPRLPRPRPRPNVFPRP	0.27
RRIRGRPPRLPRPRPRPNVTPRP	0.35
RRIRGRPPRLPRPRPRPNWYPRP	-0.0124
RRIRGRPPRLPRPRPRPNYLPRP	-0.304
RRIRGRPPRLPRPRPRPNYYPRP	-0.254
RRIRGRPPRLPRPRPRPPAIPRP	0.859
RRIRGRPPRLPRPRPRPPCCPRP	0.478
RRIRGRPPRLPRPRPRPPCQPRP	0.283
RRIRGRPPRLPRPRPRPPDLPRP	0.791
RRIRGRPPRLPRPRPRPPDNPRP	0.795
RRIRGRPPRLPRPRPRPPEFPRP	1.01
RRIRGRPPRLPRPRPRPPFCPRP	0.592
RRIRGRPPRLPRPRPRPPFMPRP	0.557
